B1: Chromosome partition protein MukB (Escherichia coli (strain K12)), P22523 (parent)
chain: MIERGKFRSLTLINWNGFFARTFDLDELVTTLSGGNGAGKSTTMAAFVTALIPDLTLLHFRNTTEAGATSGSRDKGLHGKLKAGVCYSMLDTINSRHQRVVVGVRLQQVAGRDRKVDIKPFAIQGLPMSVQPTQLVTETLNERQARVLPLNELKDKLEAMEGVQFKQFNSITDYHSLMFDLGIIARRLRSASDRSKFYRLIEASLYGGISSAITRSLRDYLLPENSGVRKAFQDMEAALRENRMTLEAIRVTQSDRDLFKHLISEATNYVAADYMRHANERRVHLDKALEFRRELHTSRQQLAAEQYKHVDMARELAEHNGAEGDLEADYQAASDHLNLVQTALRQQEKIERYEADLDELQIRLEEQNEVVAEAIERQQENEARAEAAELEVDELKSQLADYQQALDVQQTRAIQYNQAIAALNRAKELCHLPDLTADCAAEWLETFQAKELEATEKMLSLEQKMSMAQTAHSQFEQAYQLVVAINGPLARNEAWDVARELLREGVDQRHLAEQVQPLRMRLSELEQRLREQQEAERLLADFCKRQGKNFDIDELEALHQELEARIASLSDSVSNAREERMALRQEQEQLQSRIQSLMQRAPVWLAAQNSLNQLSEQCGEEFTSSQDVTEYLQQLLEREREAIVERDEVGARKNAVDEEIERLSQPGGSEDQRLNALAERFGGVLLSEIYDDVSLEDAPYFSALYGPSRHAIVVPDLSQVTEHLEGLTDCPEDLYLIEGDPQSFDDSVFSVDELEKAVVVKIADRQWRYSRFPEVPLFGRAARESRIESLHAEREVLSERFATLSFDVQKTQRLHQAFSRFIGSHLAVAFESDPEAEIRQLNSRRVELERALSNHENDNQQQRIQFEQAKEGVTALNRILPRLNLLADDSLADRVDEIRERLDEAQEAARFVQQFGNQLAKLEPIVSVLQSDPEQFEQLKEDYAYSQQMQRDARQQAFALTEVVQRRAHFSYSDSAEMLSGNSDLNEKLRERLEQAEAERTRAREALRGHAAQLSQYNQVLASLKSSYDTKKELLNDLQRELQDIGVRADSGAEERARIRRDELHAQLSNNRSRRNQLEKALTFCEAEMDNLTRKLRKLERDYFEMREQVVTAKAGWCAVMRMVKDNGVERRLHRRELAYLSADDLRSMSDKALGALRLAVADNEHLRDVLRMSEDPKRPERKIQFFVAVYQHLRERIRQDIIRTDDPVEAIEQMEIELSRLTEELTSREQKLAISSRSVANIIRKTIQREQNRIRMLNQGLQNVSFGQVNSVRLNVNVRETHAMLLDVLSEQHEQHQDLFNSNRLTFSEALAKLYQRLNPQIDMGQRTPQTIGEELLDYRNYLEMEVEVNRGSDGWLRAESGALSTGEAIGTGMSILVMVVQSWEDESRRLRGKDISPCRLLFLDEAARLDARSIATLFELCERLQMQLIIAAPENISPEKGTTYKLVRKVFQNTEHVHVVGLRGFAPQLPETLPGTDEAPSQAS
partner: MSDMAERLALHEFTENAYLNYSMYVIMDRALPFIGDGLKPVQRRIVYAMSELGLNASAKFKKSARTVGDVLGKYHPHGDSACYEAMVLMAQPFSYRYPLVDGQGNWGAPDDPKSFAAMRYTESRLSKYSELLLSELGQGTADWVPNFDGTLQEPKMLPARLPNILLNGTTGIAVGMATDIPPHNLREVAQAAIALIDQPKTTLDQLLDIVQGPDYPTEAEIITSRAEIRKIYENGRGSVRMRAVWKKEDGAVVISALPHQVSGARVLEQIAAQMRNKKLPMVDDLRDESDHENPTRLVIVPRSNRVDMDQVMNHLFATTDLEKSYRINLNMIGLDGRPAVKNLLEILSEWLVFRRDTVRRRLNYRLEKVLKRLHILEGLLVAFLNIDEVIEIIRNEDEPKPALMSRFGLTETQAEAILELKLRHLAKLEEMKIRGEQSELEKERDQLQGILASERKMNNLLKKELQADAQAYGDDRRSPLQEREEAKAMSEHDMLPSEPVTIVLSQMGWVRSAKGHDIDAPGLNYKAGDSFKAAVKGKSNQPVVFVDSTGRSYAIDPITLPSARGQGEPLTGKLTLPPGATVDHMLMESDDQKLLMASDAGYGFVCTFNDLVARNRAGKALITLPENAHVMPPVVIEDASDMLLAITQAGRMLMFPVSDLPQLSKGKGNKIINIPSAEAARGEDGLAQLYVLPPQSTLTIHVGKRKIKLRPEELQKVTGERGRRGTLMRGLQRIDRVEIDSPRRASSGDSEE
B2: DNA topoisomerase 4 subunit A (Escherichia coli (strain K12)), P0AFI2 (parent)
chain: B1 partner
partner: B1 chain

Variants of: B1
Conditions: with parc_ecoli parC

Variant	effect of a mutation on the interaction
D692F	decreasing interaction

Variants of: B1
Conditions: with parc_ecoli parC
Remark: another data set of the same source

Variant	effect of a mutation on the interaction
D692F;D746R;E753R	disrupting interaction

Variants of: B2
Conditions: with mukb_ecoli mukB

Variant	effect of a mutation on the interaction
R705D;R729D	disrupting interaction
